First the molecules themselves.
T1: recombinant full-length human PEX19 (human, UniProt P40855 1-299)
T1 construct: PEX19, human, full length, cloned into pETM11; also called recombinant PEX19
T1 sequence (looked up): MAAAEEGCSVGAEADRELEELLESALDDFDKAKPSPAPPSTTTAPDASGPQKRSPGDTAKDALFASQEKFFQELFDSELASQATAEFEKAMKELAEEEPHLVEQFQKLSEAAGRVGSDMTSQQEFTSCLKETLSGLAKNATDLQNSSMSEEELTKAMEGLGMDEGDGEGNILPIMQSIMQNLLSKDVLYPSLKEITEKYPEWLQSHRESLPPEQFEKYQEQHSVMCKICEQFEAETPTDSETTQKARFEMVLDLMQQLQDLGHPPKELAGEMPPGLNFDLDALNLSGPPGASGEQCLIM

B1: FITC-labelled peptide ACBD5 MUT2 (peptide)
peptide: {FITC}-SPGVLTFAIIWPFIAQWLVYLYYQAAAAKL
notes: the C-terminal asparagine was removed; also called MUT2 peptide; source: synthetic peptide (Genscript)
B2: FITC-labelled peptide ACBD5 MUT1 (peptide)
peptide: {FITC}-SPGVLTFAIIWPFIAQWLVYLYYQRARAKL
notes: the C-terminal asparagine was removed; also called MUT1 peptide; peptide MUT1; source: synthetic peptide (Genscript)
B3: FITC-labelled peptide ACBD5 WT (peptide)
peptide: {FITC}-SPGVLTFAIIWPFIAQWLVYLYYQRRRRKL
notes: TMD and tail region of ACBD5; the C-terminal asparagine residue was removed to facilitate peptide synthesis; also called ACBD5-TMD-T WT peptide; source: synthetic peptide (Genscript)

Data on three molecules can be found in paper PMC5450235, “Predicting the targeting of tail-anchored proteins to subcellular compartments in mammalian cells” (Journal of Cell Science, 2017).

No end group written: not given here. *: point of attachment. FITC = O=C1OC2(c3ccc(O)cc3Oc3cc(O)ccc32)c2ccc(NC(=S)*)cc21

The target of the test is T1, recombinant full-length human PEX19. The experiment in a line: fluorescence polarisation; fluorescence anisotropy; FITC peptide at 6.7 nM, protein titrated (dilution series, factor 1.5); 25°C; 50 mM Tris-HCl pH 7.5, 250 mM NaCl, 0.5 mM TCEP with 0.67 mg/ml BSA, no detergent; 1:1 hyperbolic fit. The conditions noted are these: both partners purified. A general note: Fluorescence polarisation rises when a labelled molecule tumbles more slowly, as on binding a larger partner.
In general, Kd refers to the concentration at which binding is half-saturated. For the molecule B1, the Kd worked out at 7700 nM.
For B2 the value was 1900 nM.
With B3, the Kd was determined as 900 nM.
